Columns and labels:
Test in all cases: pull-down
[1] = target: His6-GB1 tagged ITK PHTH (C96E/T110I) domain
[2] = target: ITK PHTH L51D
[3] = target: ITK PHTH E56A

## His6 tagged mouse ITK kinase domain (residues 356-619) (domain or fragment)
[1]
  disruption of the interaction by 5 μM IP(1,3,4,5)P4: > 50%
[2]
  decrease in binding compared to wild type ITK PHTH: 50%
[3]
  decrease in binding compared to wild type ITK PHTH: 50%
